The DeepSol protein solubility set

Assay: soluble on expression in E. coli; label from the status in PepcDB or PDB records

Sequence	soluble on expression in E. coli
GSRRASVGSMSKKPPNRPGITFEIGARLEALDYLQKWYPSRIEKIDYEEGKMLVHFERWSHRYDEWIYWDSNRLRPLERPALR	soluble
MATDHIRYDVLARDALRGVLRHVLTDVAQHGLPGEHHFFITFQSKGDGVKLSPRLLAQYPEEMTVVLQHQFWDLVVTEDRFEVGLSFGGIPERLVVPFASIKSFFDPSVKFGLQFEAADEVDETGEADDGTELVTAAPAPVALPTSSATTDSSAPSDDEPPRSGEGAEVVRLDRFRKKLEHHHHHH	soluble
MGEGIGRVFFLKDEVGFQPLSNHQGLVVKLLESWREGDEPLALSPKTKERLLLAARYHDDGKRFTFHIVPDGKGGLTYSFRGHRFRVAQAVQDPYAQALIRGHHDYSTREVVNLAADFLEEGLGHRFPEDLFLLMMADQLEAELAVRLWQRRAGEVRPFVEFDLLPDGEGGFLLDPWPFRVDEVALDFLVYFHPYRGEEAKVVEGWGRALVGALEEGKVPEAFREEKRRVRLRPWAAGARKADDPEAFYDRFGLKPTPFQREVFKVAEGDPAHLLLAPTGTGKTEAAAFPALARGERLVFVLPTRSLVDDLEGRFRCYLKILAQEEGRPKALVVDTGHRQARFRFSPDGQEEATKERHLYHADVILTTLDKLLYRYFGYAEGVKSYTFPRRIHDRRTLFVFDEVHLYEATAWVNFRHLIASLYKAGVRFLVMSATMPGTYREELLLEGTLEHPAAKRPSRVLRYMPQGNPMEIIQSHRGKRVLVVLEEVKEAAELYKRLKGEGVFLYHGRLAEGQRRRVFGEVKRRDKAQEPYLLITTPAIEVGVDLDAEVLVTTLCPPENLLQRLGRVNRRGGGQGEAYVVGETYPDYLGSLPEGYLELLKALDGQDLAQGGEERLRQAIRYPKYLDPRAETFFEALQDYVYGLDLTQEPLHRKGFVATRGWTPSVRLRQGEDEVEVPIDRLVGRKEELTPVRVVERLLTDGETGNRRREEVPLRSGELYGRELVLNYPYPYDPELGFVELPKVFQRLRHPDPQRVQLLYAPEKDAGEAPEGVMDTDQVTGGGRRVLWYLGESAWAEPAKSGEVAEETEEEEEEGD	soluble
MGHHHHHHSHMGKGPNLLALQLSDSTLADIIARLQAGQKLSGSSPFSSAFNSLSLDKESGLLMFKGDKKPRVWVVPTQLRRDLIFSVHDIPLGAHQRPEETYKKLRLLGWWPGMQEHVKDYCRSCLFCIPRNLIGSELKVIESPASVLRGQGVCNRSGTR	not soluble
MAARTALGAVCRRLWQGLGNFSVNTSKGNTAKNGGLLLSTNMKWVQFSNLHVDVPKDLTKPVVTISDEPDILYKRLSVLVKGHDKAVLDSYEYFAVLAAKELGISIKA	not soluble
MGSDKIHHHHHHMKVAKFGGSSLASASQIKKVFDIVQADKQRKFIVVSAPGKRSGADTKVTDALIAYYKAYKSADEKGIHYYQNWIIERFREIYDELGLKSPVINQIAENINHLAQLDLDNVFTYDTFLAAGENNNAKLVADFFNHSGLPSRYVHPSDAGIMVSSDPGNARLLGGAYEHIKYLNELEETLIIPGFFGITKEGEVCTFSRGGSDITGSIIAAGVRAELYENFTDVNGIFAAHPGIVKNPAYISELTYREMRELAYSGFSVLHDEALVPAYRAHVPLVIKNTNNPDHPGTKIVVQRETKGSPVVGIASSSAFSSLYVSKYLMNREVGFGRKVLSVLENLGVRFEHMPTGIDDMSIIIRSRYLTQPISKALISNLTESLHPDEVYIDRDFSIITIVGEDMKEHVGVTARATAALSKQGISIAMLSQGSSEVSVMFIVKEKYEKEALKAIYSAFFD	not soluble
MFDTKIAVILRDDLAVWQKLNVTAFLMSGIVAQTGEIIGEPYRDGAGNVYNPLSIQPIVVMATDQEALRKIHQRSLERDITTSLYIEEMFATGHDAANRQVFSHFSPDTAKVVGMALRADRKIVDKITKGAKLHA	soluble
MGSDKIHHHHHHMFEWVEKISFSEASPLTAQAQDNKFGFHRKRPEVMAHSHWHGHIEINYLFDCSADYLINGQEISVPEGRMIIFWASIPHQMTACHGDGEIVNIYIPLQAFLTWMLPGEFVSQLLHGEVMVSDSLYVCDRQLTQIWEADIASQEPLLASQVINEIRNRIRRMAIEHYSTFNLAHRSGHGVDKPVFGGLNHIQTMLRYIADHYDQKITIENVAMSTGLHKNYAMKLFNRVMKVSIKQYINQLRLQHAQALLIDTENPVLNIALEAGFGSVSRFYDIFQREFNMSPLEFRRRVG	not soluble
MGSDKIHHHHHHMSLEHFFRDELTYLRLQGREFAKAHPELTRFLSEQTTDPDVERLLEGFAFLTGSLRAKIEDEFPELTHGLLGMLWPNYLRPVPSMTIMQFSVHPGAIAQPAFVARGCELDSLPIDDVVCHFQTCHDAWIYPADIREIKVQSGNDLSTITLDIGLHGPLSLSDLQLDKLRFYLGGDTYTAYELYFWIASQLSHIELEVDGQRFRQEASVLKTVGFEREDALLPYPGNVYSGYRILQEYFCFPESFLFFQLAGAVWPDLPLTVTEFRLHFCFDRPLPAELKIRPDSFMFNCVPAINLFQHDSEPINLSGRQTDYPLKASYRNADSFEIFSVDKVEGWVEGNSGRSRGIPRTYQPFESFQHQIERAKGRLALYYRIRVREAINGNGFDHMLSFVRGDEQEVIDLDESISVTLTCTNRSRAAQLSVGAICVPTGNSPSFATFRNLVRPTRPLRPAMDGSLHWTLISNLSLNYVSLLRRDALVQILRTYDFPALHDKQAEQASRKRLAGIESIETTPIDRLVQGMPVRGLKSILSVRQSAFSSEGELYLFSTVLAHFFSLYASVNAFHLLEVVNIDNKERYRWPVQIGQHSMM	not soluble
MAHHHHHHMQTATAPFILRSLYKDAYISDMQIARPITELMMNTIGAQLTNKYDTHIPAIACSLYTLFSMSRVQTLGQEFCDLLPVVKAHPWQPVGPARVLLLAVLQLVEPTAVFVVARKLFPDLSTADVEEVLRKAVLCALFLFERFGTLPHRIARVRFLSLKPSRTLQDSDGAPGSYLVLGLVLLVELVVRLWRYSKERTSREAKRSTEAAVITSSDEDAEDARSGKCMLCLSNRKCPTATNCGHIFCWRCIAEWIQSNPQEAVCPFCRQHITTQSLVPLYFYVAKEPPRVGTATDAAAPPAA	soluble
MRYLPIFVFLGSFGYTETTLTKELIKDAAEKCCTRNRQECCIEIMKFGTPIRCGYDRDPKLPGYVYKCLQNVLFAKEPKKKINLDDSVCCSVFGNDQNDSGRRCENRCKNLMTSPSIDAATRLDSIKSCSLLDNVLYKCFEKCRSLRKDGIKIEVLQFEEYCNATFIQKRTFRGV	not soluble
MAHHHHHHMCAPLYVSPAVQELAQLNSEAERLMLKRAWCVHTKAHLLRELPWAARDVAAYRVALREALQSFTESQQDAFLIDVVYAQFVCAEGGVLRACVQHALFLDLTYDVRLQQWTLVPLHWNIFTTSAGALLLTLQSVLAGPHAQTPCTPPAAPATAARAPLIAHSRAHGTVDSASPLPEASTPASFVRVDPHDREALHRFMRLAFEQEGLSGELHASNRLVCAVVMDTFAIQLQSLQQSFFTGGGLGRLVEMEVRPGTLISFHLSLPELFVPSAPVAHVKMTVAGGTVMLECVRGTDLSTRRVTLPLGTSSLVASGAVGVNTATWKSSMTVVDMEALLWQCVCASAPS	not soluble
MGSDKIHHHHHHMQQAQLPLEAILYQYDLYPEAVEDHGENVKKLVTKHGLFALKKTQMTRSQADWFVYCMRKLDRLGYRKVVPLVPTKFGEYTLTDRDTSFYVMPWIESIPYNARESQEEKLADQLGVIHRLTVKTQPFSKEQLEASYNELRDRWDSRWLTMNRFADQAERKTYMSPYELTLLTHFSFLEHMAHTAKESLEAWYETCLEKEKYRSVLCHGRLSRAHAFFNERHEPLLFNFERAALDTPARDLASFFRHSFPHALWSEEEGHRWLYRYEQHLPLLEEEKRLLHAYLSFPDPVIYGIEAYQQQSGPPSEVKHVKRLEKRLLNLRRVERFSKSLLPTPAINESGLS	not soluble
MNYHTFCPISCVSWLYQKIEDSFFLVIGTKTCGYFLQNAMGVMIFAEPRYAMAELEEGDISAQLKDYEELKRLCLQIKRDRNPSVIVWIGTCTTEIIKMDLEGLAPQLEAEIGIPIVTARANGLDYAFTQGEDTVLASMAHKCPTSAQVQGEDKELEHHHHHH	soluble
MNYLQYYPTDVINGEGTRCTLFVSGCTHACKGCYNQKSWSFSAGVLFDDVMEQQIINDLKDTRIKRQGLTLSGGDPLHPLNVETLLPFVQRVKRECPDKDIWVWTGYKLDELDKQQRAMLPYIDVLIDGKFIQEQADPSLVWRGSANQIIHRFKLLEHHHHHH	soluble
SVISESMDILFRIRGGLDLAFQLATPNEIFLKKALKHVLSDLSTKLSSNALVFRICHSSVYIWPSSDINTIPGELTDASACKTILRFIQFEPEEDIKRKFMRKKDKKLSDMHQIVNIDLMLEMSTSLAAVTPIIERESGGHHYVNMTLPVDAVISVAPEETWGKVRKLLVDAIHNQLTDMEKCILKYMKGTSIVVPEPLHFLLPGKKNLVTISYPSGIPDGQLQAYRKELHDLFNLPHDRPYFKRSNAYHFPDEPYKDGYIRNPHTYLNPPNMETGMIYVVQGIYGYHHYMQDRIDDNGWGCAYRSLQTICSWFKHQGYTERSIPTHREIQQALVDAGDKPATFVGSRQWIGSIEVQLVLNQLIGITSKILFVSQGSEIASQGRELANHFQSEGTPVMIGGGVLAHTILGVAWNEITGQIKFLILDPHYTGAEDLQVILEKGWCGWKGPDFWNKDAYYNLCLPQRPNMI	not soluble
MISNFKSISLTYRKAPLEIRERVALNEAECKSLMLRIKDFTDTAELLILSTCNRTEIYYTSNEDYSNDIIKLLGVEKNITGLIQQKEYFEIYNEQADAVLHLFEVGIGLDSQVVGDMQIVNQVKYAYQWSADLNLAGPFLHRLMHTIFFTNKRVVQETAFRDGAASVSYATVELSEELLSATPNANILIVGLGEIGADVCRNFKANTSFKNITLTNRSPLKSEALAAECGIEHVPFETLWEAVAKADLVISSVAKEEPLFTKEEIQKLSILSHKYFIDLSVPRSVDARAEELPGIIVYDIDHIQNRSNEALENRLNAIPHVRKIILDSIVEFNEWSKEMEVSPTINKLKNALEQIRKEELSRFVKQLSDEEAKKVDEITKSIMQKIIKLPVLQLKAACKRGEAETLIDVLNDLFNLDKQPEQIRD	not soluble
GVKCEPFEHLVIDTPQDFSGAIIERLGKRKAEMKAMNPMSDGYTRLEFEIPARGLIGYRSEFLTDTKGEGVMNHSFLEFRPFSGSVESRKNGALISMENGEATAFSLFNIQERGTLFINPQTKVYVGMV	not soluble
MAHHHHHHMLRRTARRAMGNSRFSGSKERDRIEQERRRRLLYDAAGNLQLGGLLLMMYDDFKKPAAIGLGMVAFLYGYNRLVVRLSREEEAEGLQLDAKSEAVARQTGKLKADRYLVKPNRQIDDPDFLNIPAFGGRGVSSSKLLSDDSVSGGALHSERKRS	not soluble
MKFQCSSCGLRMDSLHFKQEGLMNPKLTSICDICRTRNLNPEEYSNNAVSTFAQSLLYTFVGADKKQDQLNFIVKNKKARKKYEAFLQDYDGNEIARQQIKRSDFNLAVIKSEDGQNDYVPNQDITFEQNLKKMGLEINFQLNEVDFIDRERIRAKYKYRCQYCGRRGHSVDHKDPVSLSHNNSLDNLTLACAECNRIKSDMPYKLFIQLNDQISDINKKLVKYENALGTLREEFEHRRRYLAAQVHLKGIINDPELNEIRKQNKSLQDAIDSLQSDYDDLRQIRKTYFDTGWKLARIKENNDIILEHHHHHH	not soluble
MMKSIATLISVVLCSFSAWAQTITAAQDPWPPFVMENAQQKGLSVDIVTAAFATQGYTVEFTIMPWSRALNDVKEGKIDILPATWFTQERTAYLTYSDNYLTNQVKFIKKAGDNFEFAGLASLNGKKVGIVRGYGYGDEFMNDPSFFRPESTDLKQNLQKLQAGRIDLAVEDELVAKSIITEAGMNLADFAFTNQAISENPLHVTSGKANPRSEELVAAFNKGLAEIKANGTFDKLLADYGIK	not soluble
